Test results taken from article doi:10.1101/2024.12.30.630826.

B1: RGen-aptamer-9 (structured_RNA)
RNA: UCCAGCACUCCACGCAUAACGAAGGGGGUUUGUUUGUUGGGGGGGGGGGAGGGGGAGUUAUGCGUGCUACCGUGAA
B2: SELEX-derived wild-type aptamer (structured_RNA)
RNA: UCCAGCACUCCACGCAUAACGGCGGUGGGUGGGUUGUUGUGGGAGGGGGAGGGGGAGUUAUGCGUGCUACCGUGAA

Molecular target: IGFBP3 (insulin-like growth factor-binding protein 3) (UniProt P17936 28-291)
Assay: SPR

Chain of IGFBP3 (insulin-like growth factor-binding protein 3) (P17936 28-291): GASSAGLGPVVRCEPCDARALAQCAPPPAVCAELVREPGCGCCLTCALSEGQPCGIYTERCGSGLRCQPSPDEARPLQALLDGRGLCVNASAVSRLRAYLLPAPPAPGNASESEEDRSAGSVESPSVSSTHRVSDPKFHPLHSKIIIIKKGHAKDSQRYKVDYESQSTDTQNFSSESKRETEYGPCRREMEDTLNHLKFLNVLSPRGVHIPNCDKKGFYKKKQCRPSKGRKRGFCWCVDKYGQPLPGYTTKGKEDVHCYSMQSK

Row | Binder | Kd [nM]
1 | B1 | 6.06
2 | B2 | 11.6
